Reference: article PMC9864903, “Imaging of the Glucose-Dependent Insulinotropic Polypeptide Receptor Using a Novel Radiolabeled Peptide Rationally Designed Based on Endogenous GIP and Synthetic Exendin-4 Sequences” (Pharmaceuticals, 2022)
“Also recorded” adds a separate entry of the source.

Tests used:
GIPR = settings: affinity for the GIPR; cited from earlier work
Excerpt: This effect may be due to the exchange of Aib(2) to A(2), L(10) to Y(10), R(16) to K(16), E(20) to Q(20), L(27) to K(27), K(31) to H(31), and the addition of the C-terminal tail ((32-39); […]). [^68Ga]Ga-C803-GIP was furthermore evaluated for its affinity, internalization, and binding specificity towards the GIPR.

[1] = dynamic PET/CT organ distribution in pig; format: in vivo; settings: infusion of GIP(1-42) 20 pmol/kg/min
Excerpt: An anesthetized pig (25 kg) was positioned to include the abdomen with pancreas in the center of the 25 cm axial field of view of a Discovery MI PET/CT scanner (GE Healthcare, MI, USA) by assistance of a low-dose CT scout view (140 kV, 10 mAs). The details of the animal handling, preparation, and anesthesia have been previously described.
Attenuation correction was acquired by a 140 kV, 10–80 mA CT examination. The administration of [^68Ga]Ga-C803-GIP (17.3 MBq, corresponding to approximately 2.5 μg peptide or 0.10 μg/kg) was made upon the start of the baseline dynamic scan lasting for 90 min (30 frames; […]). The dynamic scan was followed by a static scan over the brain from 90–120 min post administration. A second PET investigation was performed after an additional 2 h to allow the radioactivity from the first scan to fade from the circulation by decay and excretion.
The GIP(1-42) infusion was continued until the end of the PET scan. Finally, after the last PET scan, a contrast-enhanced CT scan was performed to assist delineation of the tissues, e.g., the pancreas.
Segmentation of the tissues of interest (descending aorta, pancreas, spleen, kidney, liver, and muscle) was performed in PMOD (PMOD Technologies), and time–activity curves were expressed as SUV as detailed above.

[2] = chemical stability of Ga-C803-GIP at ambient temperature and pH 4.5; format: physicochemical; settings: for at least one week at ambient temperature and pH 4.5
Excerpt: C803-GIP has a sequence partially similar to that of hGIP(1-30), wherein L-Alanine at position 2 was exchanged to D-Alanine, Methionine at position 14 was exchanged to Leucine, Aspartic acid at position 21 was exchanged to Glutamic acid, Valine at position 23 was exchanged to Isoleucine, Asparagine at position 24 was exchanged to Glutamic acid, Leucine at position 27 was exchanged to Lysine, and both Glutamine at position 29 and Lysine at position 30 were exchanged to Glycine. The sequence was amended with Histidine (31), Proline (32), and seven more residues corresponding to those found in exendin-4 (Serine(33)-Glycine(34)-Alanine(35)-Proline(36)-Proline(37)-Proline(38)-Serine(39)). The peptide sequence was conjugated via terminal Serine(39) to a DOTA chelator moiety functionalized with a vinyl sulfone linker and cysteine amide (Table 1). C803-GIP was loaded with stable isotopes of gallium to yield Ga-C803-GIP for the subsequent investigation of the stability and biological activity. Ga-C803-GIP was stable with a purity of over 95% for at least one week at ambient temperature and pH 4.5.

[3] = pharmacokinetics in rats after subcutaneous administration; format: in vivo; settings: rat
Excerpt: The potency of the peptide conjugate in terms of EC50 was studied using C803-GIP and C803-GIP loaded with a stable isotope of gallium (Ga-C803-GIP) in HEK293 cells transfected with the GIPR from human, monkey (NHP), and rat species. In addition, the cross-reactivity was studied in HEK293 cells transfected with the GLP1-R and GCGR. […] In contrast, the EC50 for the rat GIPR was one order of magnitude poorer. […] The pharmacokinetic properties were investigated in vivo in rats. […] The average plasma concentration calculated to the infinity (AUCinf) was 1370 h*ng/mL.
Figure 1 Plasma concentration of Ga-C803-GIP measured at 3, 6, 9.6, 19.8, 30, 60, 120, and 240 min post subcutaneous administration in rats (n = 3). The error bars are not seen due to the low SD values.

[Lys37(111In-DTPA)]N-acetyl-GIP1-42
IC50 (GIPR): 4.8 µM

YAEGTFISDYSIAMDKIHQQDFVNWLLAQKGKKNDWKHNITQ [GIP(1-42), reference compound]
effect of GIP(1-42) on uptake of [68Ga]Ga-C803-GIP in tissues [1]: did not reduce the uptake; also recorded: did not affect the uptake pattern

CC[C@H](C)[C@H](NC(=O)[C@H](CO)NC(=O)[C@H](Cc1ccc(O)cc1)NC(=O)[C@H](CC(=O)O)NC(=O)[C@H](CO)NC(=O)[C@@H](NC(=O)[C@H](Cc1ccccc1)NC(=O)[C@@H](NC(=O)CNC(=O)[C@H](CCC(=O)O)NC(=O)[C@@H](C)NC(=O)[C@@H](N)Cc1ccc(O)cc1)[C@@H](C)O)[C@@H](C)CC)C(=O)N[C@@H](C)C(=O)N[C@@H](CC(C)C)C(=O)N[C@@H](CC(=O)O)C(=O)N[C@@H](CCCCN)C(=O)N[C@H](C(=O)N[C@@H](Cc1c[nH]cn1)C(=O)N[C@@H](CCC(N)=O)C(=O)N[C@@H](CCC(N)=O)C(=O)N[C@@H](CCC(=O)O)C(=O)N[C@@H](Cc1ccccc1)C(=O)N[C@H](C(=O)N[C@@H](CCC(=O)O)C(=O)N[C@@H](Cc1c[nH]c2ccccc12)C(=O)N[C@@H](CC(C)C)C(=O)N[C@@H](CCCCN)C(=O)N[C@@H](C)C(=O)NCC(=O)NCC(=O)N[C@@H](Cc1c[nH]cn1)C(=O)N1CCC[C@H]1C(=O)N[C@@H](CO)C(=O)NCC(=O)N[C@@H](C)C(=O)N1CCC[C@H]1C(=O)N1CCC[C@H]1C(=O)N1CCC[C@H]1C(=O)N[C@@H](CO)C(=O)N[C@@H](CSCCS(=O)(=O)CCN1CCN(CC(=O)O)CCN(CC(=O)O)CCN(CC(=O)O)CC1)C(N)=O)[C@@H](C)CC)[C@@H](C)CC [Ga-C803-GIP]
purity on storage (stability) [2]: over 95% | half-life ([3]; plasma, sc, 1 mg/kg, n = 3): 22.8 min | AUCinf ([3]; 1 mg/kg, n = 3): 1370 ng·h/mL | plasma clearance (CL) ([3]; 1 mg/kg, n = 3): 12.2 mL/min/kg | plasma concentration at the 240 min time point ([3]; n = 3, 240 min post administration): below the limit of detection
